Experimental data published in patent US20040002450A1 (published 2004).
Non-standard residues stand in square brackets, D forms with d. No end group written: not given here. sY = N[C@@H](Cc1ccc(OS(=O)(=O)O)cc1)C(=O)O

T1: PSGL-1 on KG-1 cells (human, UniProt Q14242 42-412, sulfated tyrosines in the N-terminal site)
T1 construct: whole, on cells; results told for KG-1 cells are written against this molecule; also called P-Selectin Glycoprotein Ligand-1; CD162
T1 sequence (looked up): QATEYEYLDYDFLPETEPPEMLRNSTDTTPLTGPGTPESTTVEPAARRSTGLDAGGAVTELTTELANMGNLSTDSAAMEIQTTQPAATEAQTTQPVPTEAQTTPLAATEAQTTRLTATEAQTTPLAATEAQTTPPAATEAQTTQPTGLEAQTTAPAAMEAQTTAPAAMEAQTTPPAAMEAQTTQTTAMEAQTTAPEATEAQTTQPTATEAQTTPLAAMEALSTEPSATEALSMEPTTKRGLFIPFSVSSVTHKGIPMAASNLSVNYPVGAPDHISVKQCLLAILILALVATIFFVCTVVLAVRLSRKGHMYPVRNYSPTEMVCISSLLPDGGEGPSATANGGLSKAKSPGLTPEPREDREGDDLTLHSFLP


Tests used:
[1] = biological target: T2, Y1 scFv; experiment: competition ELISA on coated glycocalicin, 0.25 µg/well Y1, peptide 0.5 µM
T2 construct: Fully human scFv from the Nissim I phage library; Used biotin-labelled in the Western blots; also called scFv Y1; scFv-Y1
T2 sequence (scFv, as listed by the source): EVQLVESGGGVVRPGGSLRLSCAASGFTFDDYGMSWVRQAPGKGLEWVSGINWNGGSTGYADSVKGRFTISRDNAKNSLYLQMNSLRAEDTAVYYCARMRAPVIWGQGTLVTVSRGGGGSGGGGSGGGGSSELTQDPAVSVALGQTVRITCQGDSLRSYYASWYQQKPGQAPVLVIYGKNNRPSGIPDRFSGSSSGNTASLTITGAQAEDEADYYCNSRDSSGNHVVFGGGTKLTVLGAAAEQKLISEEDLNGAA
Protocol: (§1) ELISA assays were developed to evaluate the effect of the GPIb derived synthetic peptides on the binding of Y1 to purified glycocalicin. In addition, FACS analysis using washed platelets was carried out. To evaluate the importance of sulfated tyrosine within the Y1 binding site of GPIb, a competitive binding FACS analysis was used. Y1-scFv at a concentration of 1 μg was preincubated with different peptides at concentrations of 2.5 and 200 μM. After a preincubation for 30 minutes at room temperature the mixture was added to a tube containing ˜10⁷ washed platelets and the binding of Y1 to the washed platelets was assessed using polyclonal rabbit anti-scFv-PE. The inhibitory effect of the peptides compared to control binding (Y1 alone) was evaluated by measuring the residual binding of Y1 to washed platelets. The peptides and the results are described in Table 1 and are similar to results that were observed using the same peptides in an ELISA assay (Table B). In both assays, a control level of Y1 binding was determined, as follows. A polystyrene microtiter maxisorb plate was coated with (a) purified glycocalicin or (b) washed platelets. After extensive washing, 0.5 μg/well of Y1 was added. The plate was then incubated with rabbit anti-scFv followed by addition of anti rabbit —HRP (horse radish peroxidase) and HRP substrate. The level of anti rabbit —HRP binding was measured by the intensity of the color produced, and the level of anti rabbit —HRP binding correlates with the level of binding of anti Y1-scFv and the level of binding of Y1. The optical density was measured at A405. Each sample was assayed in duplicate, and the average was calculated.
(§2) The effect of synthetic GPIbα peptides on Y1 binding to purified glycocalicin was evaluated by mixing varying concentrations of the peptides with a constant amount of Y1. […] The inhibitory effect of the peptides was evaluated by measuring the residual binding of Y1 to glycocalicin using rabbit anti Y1scFv and anti rabbit —HRP antibodies, as described for evaluation of Y1 binding in the absence of peptides.

[2] = biological target: T2, Y1 scFv; experiment: competition ELISA on coated glycocalicin, 0.25 µg/well Y1, peptide 2.5 µM
Protocol: as §1, §2

[3] = biological target: T2, Y1 scFv; experiment: competitive FACS, 1 µg Y1-scFv on ~10^7 washed platelets, peptide 200 µM
Protocol: as §1

[4] = biological target: T2, Y1 scFv; experiment: competition ELISA on coated glycocalicin, 0.25 µg/well Y1, peptide 25 µM
Protocol: as §1, §2

[5] = biological target: T2, Y1 scFv; experiment: competitive FACS, 1 µg Y1-scFv on ~10^7 washed platelets, peptide 2.5 µM
Protocol: as §1

[6] = biological target: T1, PSGL-1 on KG-1 cells; experiment: FACS on KG-1 cells, directly FITC-labelled
[7] = biological target: T1, PSGL-1 on KG-1 cells; experiment: second radioreceptor competition assay on KG-1 cells
Protocol: (§3) The assay system involved the use of radioactive ligands that were prepared by iodination with ¹²⁵I using chloramine T on the Y1-IgG construct or the Bolton-Hunter (CONY1) reagent. The assay tubes contained 5×10⁶ KG-1 cells per 0.2 ml and a labeled tracer with varying amounts of unlabeled competitor, in PBS+0.1% BSA, pH 7.4. After one hour incubation with agitation at 4° C., the cells were thoroughly washed with cold buffer and taken for radioactivity counting.
In a second RRA using labeled CONYL, a 100 ng/tube of ¹²⁵I-Y1-IgG was used, and competition was performed with each of the three molecules.

[8] = biological target: T1, PSGL-1 on KG-1 cells; experiment: radio receptor assay on KG-1 cells, dimer as competitor
[9] = biological target: T1, PSGL-1 on KG-1 cells; experiment: radioreceptor competition assay on KG-1 cells, 125I-Y1-IgG tracer
Protocol: as §3
For the radio receptor binding assay (RRA), 2 ng/tube of ¹²⁵I-Y1-IgG was used, and competition was performed with each of the three molecules.

Residual Binding of Y1 (% of baseline) [1] | Residual Binding of Y1 (% of baseline) [2] | Residual Binding of Y1 (% of baseline) (Geo Mean) [3] | Residual Binding of Y1 (% of baseline) [4] | Residual Binding of Y1 (% of baseline) (Geo Mean) [5] | fold less material than the monomer [6] | Kd [7] | fold higher affinity than CONY1 [7] | fold efficiency against the monomer [8] | Kd [9] | fold higher affinity than CONY1 [9] | fold lower affinity than the full Y1 antibody [9] | Binder
80 % of baseline | 67 % of baseline | 26 % of baseline | 21 % of baseline | 82 % of baseline |  |  |  |  |  |  |  | GDEGDTDL[sY]D[sY][sY]P [P-3-S]
121 % of baseline | 100 % of baseline | 119 % of baseline | 89 % of baseline | 96 % of baseline |  |  |  |  |  |  |  | REEGRQHFFLLEGRSSYS (also called negative control peptide) [EGR]
78 % of baseline | 52 % of baseline | 7 % of baseline | 15 % of baseline | 61 % of baseline |  |  |  |  |  |  |  | TDL[sY]D[sY][sY]PEEDTE [P-2-S]
 |  |  |  |  | 10 fold | ~50 nM | 20 fold | 30 fold | ~40 nM | 30 fold | 2 fold | Y1-cys-kak (cysteine dimer) (other, Homodimer held by an interchain disulfide between Cys243 of chain 1 and Cys243 of chain 2., also called Y1-cys-kak scFv; dimer Y1-cys-kak) scFv: MEVQLVESGGGVVRPGGSLRLSCAASGFTFDDYGMSWVRQAPGKGLEWVSGINWNGGSTGYADSVKGRFTISRDNAKNSLYLQMNSLRAEDTAVYYCARMRAPVIWGQGTLVTVSRGGGGSGGGGSGGGGSSELTQDPAVSVALGQTVRITCQGDSLRSYYASWYQQKPGQAPVLVIYGKNNRPSGIPDRFSGSSSGNTASLTITGAQAEDEADYYCNSRDSSGNHVVFGGGTKLTVLGGGGCKAK
